Consider 8 proteins from patent US11549123B2, “Plant EPSP synthases and methods of use” (PIONEER HI-BRED INTERNATIONAL, INC., priority 2015, dated 2023).

Holding throughout (format): biochemical, Zea mays
Substrate in series [1]: C=C(OP(=O)(O)O)C(=O)O
Briefly: Substrate saturation kinetic analysis with glyphosate, Zm-A189T. The conditions noted are these: other: substrate saturation.

Substrate in series [2]: C=C(OP(=O)(O)O)C(=O)O
Briefly: Substrate saturation kinetic analysis with glyphosate, Zm-T103I. To be noted: other: substrate saturation.

Substrate in series [3]: C=C(OP(=O)(O)O)C(=O)O
Briefly: Substrate saturation kinetic analysis with glyphosate, Zm-P107S. To be noted: other: substrate saturation.

Substrate in series [4]: C=C(OP(=O)(O)O)C(=O)O
Briefly: Substrate saturation analysis with glyphosate (Example 8), Zm-H6. To be noted: other: substrate saturation, pH 7.0. An excerpt:
Generally, (kcat/KM)*KI is obtained by performing substrate saturation analysis in the absence and presence of inhibitor. However, that analysis takes longer. […] To validate the method, (kcat/KM)*KI was quantified using both methods—traditional (saturation) and the instant method (rapid), for variants of maize 5-enolpyruvylshikimate-3-phosphate synthase (EPSPS) and its competitive inhibitor, glyphosate.
The amino acid sequence of mature Zea mays EPSPS was obtained from GenBank entry CAA44974.1 (SEQ ID NO:2). A nucleotide sequence was created to add an N-terminal methionine and to optimize codon usage for expression in E. coli. The synthesized gene was cloned into an expression vector that provides a T7 promoter driving expression of the protein and a 10× N-terminal histidine tag. Variants selected for this study include native maize EPSPS and variants generated by a gene shuffling cascade described herein. […] Protein concentration was determined by absorbance at 280 nm using an extinction coefficient of 0.676 OD/mg/m L. The proteins were normalized to 0.5 mg/mL for assay.
EPSPS activity was determined by quantifying the phosphate generated by the reaction. […] The absorbance change that occurs was monitored continuously at 360 nm, where the extinction is 11,200 M-1 cm-1, with a Spectramax plate reader (Molecular Devices). […]

Substrate in series [5]: C=C(OP(=O)(O)O)C(=O)O
Briefly: Substrate saturation kinetic analysis with glyphosate, H6-A36G. To be noted: other: substrate saturation.

Substrate in series [6]: C=C(OP(=O)(O)O)C(=O)O
Briefly: Substrate saturation kinetic analysis with glyphosate, H6-V87T. The conditions noted are these: other: substrate saturation.

Substrate in series [7]: C=C(OP(=O)(O)O)C(=O)O
Briefly: Substrate saturation kinetic analysis with glyphosate, H6-H54E. To be noted: other: substrate saturation.

Substrate in series [8]: C=C(OP(=O)(O)O)C(=O)O
Briefly: Substrate saturation kinetic analysis with glyphosate, H6-A76V. The conditions noted are these: other: substrate saturation.

B1: Zea mays EPSPS variant Zm-A189T (Zea mays; A188T) (protein)
chain: MAGAEEIVLQPIKEISGTVKLPGSKSLSNRILLLAALSEGTTVVDNLLNSEDVHYMLGALRTLGLSVEADKAAKRAVVVGCGGKFPVEDAKEEVQLFLGNAGTAMRPLTAAVTAAGGNATYVLDGVPRMRERPIGDLVVGLKQLGADVDCFLGTDCPPVRVNGIGGLPGGKVKLSGSISSQYLSALLMTAPLALGDVEIEIIDKLISIPYVEMTLRLMERFGVKAEHSDSWDRFYIKGGQKYKSPKNAYVEGDASSASYFLAGAAITGGTVTVEGCGTTSLQGDVKFAEVLEMMGAKVTWTETSVTVTGPPREPFGRKHLKAIDVNMNKMPDVAMTLAVVALFADGPTAIRDVASWRVKETERMVAIRTELTKLGASVEEGPDYCIITPPEKLNVTAIDTYDDHRMAMAFSLAACAEVPVTIRDPGCTRKTFPDYFDVLSTFVKN
For orientation: Km means the concentration of substrate that gives half-maximal velocity. As usually defined, the kcat is the number of substrate molecules converted per active site and unit of time at saturation. With B1, in series [1], the Km was 307 µM and the kcat turned out to be 4.3 s⁻¹.

B2: Zea mays EPSPS variant Zm-T103I (Zea mays; T102I) (protein)
chain: MAGAEEIVLQPIKEISGTVKLPGSKSLSNRILLLAALSEGTTVVDNLLNSEDVHYMLGALRTLGLSVEADKAAKRAVVVGCGGKFPVEDAKEEVQLFLGNAGIAMRPLTAAVTAAGGNATYVLDGVPRMRERPIGDLVVGLKQLGADVDCFLGTDCPPVRVNGIGGLPGGKVKLSGSISSQYLSALLMAAPLALGDVEIEIIDKLISIPYVEMTLRLMERFGVKAEHSDSWDRFYIKGGQKYKSPKNAYVEGDASSASYFLAGAAITGGTVTVEGCGTTSLQGDVKFAEVLEMMGAKVTWTETSVTVTGPPREPFGRKHLKAIDVNMNKMPDVAMTLAVVALFADGPTAIRDVASWRVKETERMVAIRTELTKLGASVEEGPDYCIITPPEKLNVTAIDTYDDHRMAMAFSLAACAEVPVTIRDPGCTRKTFPDYFDVLSTFVKN
notes: native maize plus T103I; E. coli BL21(DE3), Ni-NTA purified
Take B2: in series [2], the Michaelis constant (Km) was 171 µM and the kcat amounted to 5.33 s⁻¹.

B3: Zea mays EPSPS variant Zm-P107S (Zea mays; P106S) (protein)
chain: MAGAEEIVLQPIKEISGTVKLPGSKSLSNRILLLAALSEGTTVVDNLLNSEDVHYMLGALRTLGLSVEADKAAKRAVVVGCGGKFPVEDAKEEVQLFLGNAGTAMRSLTAAVTAAGGNATYVLDGVPRMRERPIGDLVVGLKQLGADVDCFLGTDCPPVRVNGIGGLPGGKVKLSGSISSQYLSALLMAAPLALGDVEIEIIDKLISIPYVEMTLRLMERFGVKAEHSDSWDRFYIKGGQKYKSPKNAYVEGDASSASYFLAGAAITGGTVTVEGCGTTSLQGDVKFAEVLEMMGAKVTWTETSVTVTGPPREPFGRKHLKAIDVNMNKMPDVAMTLAVVALFADGPTAIRDVASWRVKETERMVAIRTELTKLGASVEEGPDYCIITPPEKLNVTAIDTYDDHRMAMAFSLAACAEVPVTIRDPGCTRKTFPDYFDVLSTFVKN
notes: native maize plus P107S; E. coli BL21(DE3), Ni-NTA purified
As to B3, in series [3], the Km is 14.8 µM and the kcat was determined as 29.97 s⁻¹.

B4: Zea mays EPSPS variant Zm-H6 (868-H6) (Zea mays; A1R/A3W/A415G/A71Q/D401G/E301S/E390G/G101A/I207L/K83R/L97C/T278A/T360S/T440Q/V437R) (protein)
chain: MRGWEEIVLQPIKEISGTVKLPGSKSLSNRILLLAALSEGTTVVDNLLNSEDVHYMLGALRTLGLSVEADKQAKRAVVVGCGGRFPVEDAKEEVQLFCGNAATAMRPLTAAVTAAGGNATYVLDGVPRMRERPIGDLVVGLKQLGADVDCFLGTDCPPVRVNGIGGLPGGKVKLSGSISSQYLSALLMAAPLALGDVEIEIIDKLISLPYVEMTLRLMERFGVKAEHSDSWDRFYIKGGQKYKSPKNAYVEGDASSASYFLAGAAITGGTVTVEGCGTASLQGDVKFAEVLEMMGAKVTWTSTSVTVTGPPREPFGRKHLKAIDVNMNKMPDVAMTLAVVALFADGPTAIRDVASWRVKESERMVAIRTELTKLGASVEEGPDYCIITPPGKLNVTAIDTYGDHRMAMAFSLAACGEVPVTIRDPGCTRKTFPDYFDRLSQFVKN
B4: in series [4], the Km amounted to 20.6 µM and the kcat was 3.3 s⁻¹.

B5: Zea mays EPSPS variant Zm-H6 (868-H6) with A36G (H6-A36G) (Zea mays; A1R/A35G/A3W/A415G/A71Q/D401G/E301S/E390G/G101A/I207L/K83R/L97C/T278A/T360S/T440Q/V437R) (protein)
chain: MRGWEEIVLQPIKEISGTVKLPGSKSLSNRILLLAGLSEGTTVVDNLLNSEDVHYMLGALRTLGLSVEADKQAKRAVVVGCGGRFPVEDAKEEVQLFCGNAATAMRPLTAAVTAAGGNATYVLDGVPRMRERPIGDLVVGLKQLGADVDCFLGTDCPPVRVNGIGGLPGGKVKLSGSISSQYLSALLMAAPLALGDVEIEIIDKLISLPYVEMTLRLMERFGVKAEHSDSWDRFYIKGGQKYKSPKNAYVEGDASSASYFLAGAAITGGTVTVEGCGTASLQGDVKFAEVLEMMGAKVTWTSTSVTVTGPPREPFGRKHLKAIDVNMNKMPDVAMTLAVVALFADGPTAIRDVASWRVKESERMVAIRTELTKLGASVEEGPDYCIITPPGKLNVTAIDTYGDHRMAMAFSLAACGEVPVTIRDPGCTRKTFPDYFDRLSQFVKN
Take B5: in series [5], the Km came to 30.8 µM and the kcat is 4.1 s⁻¹.

B6: Zea mays EPSPS variant Zm-H6 (868-H6) with V87T (H6-V87T) (Zea mays; A1R/A3W/A415G/A71Q/D401G/E301S/E390G/G101A/I207L/K83R/L97C/T278A/T360S/T440Q/V437R/V86T) (protein)
chain: MRGWEEIVLQPIKEISGTVKLPGSKSLSNRILLLAALSEGTTVVDNLLNSEDVHYMLGALRTLGLSVEADKQAKRAVVVGCGGRFPTEDAKEEVQLFCGNAATAMRPLTAAVTAAGGNATYVLDGVPRMRERPIGDLVVGLKQLGADVDCFLGTDCPPVRVNGIGGLPGGKVKLSGSISSQYLSALLMAAPLALGDVEIEIIDKLISLPYVEMTLRLMERFGVKAEHSDSWDRFYIKGGQKYKSPKNAYVEGDASSASYFLAGAAITGGTVTVEGCGTASLQGDVKFAEVLEMMGAKVTWTSTSVTVTGPPREPFGRKHLKAIDVNMNKMPDVAMTLAVVALFADGPTAIRDVASWRVKESERMVAIRTELTKLGASVEEGPDYCIITPPGKLNVTAIDTYGDHRMAMAFSLAACGEVPVTIRDPGCTRKTFPDYFDRLSQFVKN
notes: 868-H6 plus V87T; E. coli BL21(DE3), Ni-NTA purified
On to B6, for which, in series [6], the Km amounted to 27.5 µM and the kcat came to 4.32 s⁻¹.

B7: Zea mays EPSPS variant Zm-H6 (868-H6) with H54E (H6-H54E) (Zea mays; A1R/A3W/A415G/A71Q/D401G/E301S/E390G/G101A/H53E/I207L/K83R/L97C/T278A/T360S/T440Q/V437R) (protein)
chain: MRGWEEIVLQPIKEISGTVKLPGSKSLSNRILLLAALSEGTTVVDNLLNSEDVEYMLGALRTLGLSVEADKQAKRAVVVGCGGRFPVEDAKEEVQLFCGNAATAMRPLTAAVTAAGGNATYVLDGVPRMRERPIGDLVVGLKQLGADVDCFLGTDCPPVRVNGIGGLPGGKVKLSGSISSQYLSALLMAAPLALGDVEIEIIDKLISLPYVEMTLRLMERFGVKAEHSDSWDRFYIKGGQKYKSPKNAYVEGDASSASYFLAGAAITGGTVTVEGCGTASLQGDVKFAEVLEMMGAKVTWTSTSVTVTGPPREPFGRKHLKAIDVNMNKMPDVAMTLAVVALFADGPTAIRDVASWRVKESERMVAIRTELTKLGASVEEGPDYCIITPPGKLNVTAIDTYGDHRMAMAFSLAACGEVPVTIRDPGCTRKTFPDYFDRLSQFVKN
notes: 868-H6 plus H54E; E. coli BL21(DE3), Ni-NTA purified
Consider B7, for which, in series [7], the Km is 27.9 µM and the kcat is 4.13 s⁻¹.

B8: Zea mays EPSPS variant Zm-H6 (868-H6) with A76V (H6-A76V) (Zea mays; A1R/A3W/A415G/A71Q/A75V/D401G/E301S/E390G/G101A/I207L/K83R/L97C/T278A/T360S/T440Q/V437R) (protein)
chain: MRGWEEIVLQPIKEISGTVKLPGSKSLSNRILLLAALSEGTTVVDNLLNSEDVHYMLGALRTLGLSVEADKQAKRVVVVGCGGRFPVEDAKEEVQLFCGNAATAMRPLTAAVTAAGGNATYVLDGVPRMRERPIGDLVVGLKQLGADVDCFLGTDCPPVRVNGIGGLPGGKVKLSGSISSQYLSALLMAAPLALGDVEIEIIDKLISLPYVEMTLRLMERFGVKAEHSDSWDRFYIKGGQKYKSPKNAYVEGDASSASYFLAGAAITGGTVTVEGCGTASLQGDVKFAEVLEMMGAKVTWTSTSVTVTGPPREPFGRKHLKAIDVNMNKMPDVAMTLAVVALFADGPTAIRDVASWRVKESERMVAIRTELTKLGASVEEGPDYCIITPPGKLNVTAIDTYGDHRMAMAFSLAACGEVPVTIRDPGCTRKTFPDYFDRLSQFVKN
Take B8: in series [8], the Km is 45.2 µM and the kcat came out at 3.48 s⁻¹.
